Results: the supplement of paper PMC12042874
± gives the uncertainty stated by the source.

Test: amyloid nucleation score (Sup35N fusion, yeast selection) (log enrichment); library NNK3; higher = more nucleation; inactive = no reads after selection
In short: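 Yeast lacking psi expressed peptides of 20 random codons fused to Sup35N, received 100 μM copper sulfate for 24 hours, and were then grown for 7 days at 30°C on medium lacking adenine and uracil. Illumina sequencing of input and output plasmid inserts provided the reads. Nucleation scores are DiMSum log enrichments of output over input, centred on the mode of non-aggregating sequences. Any sequence with under 100 input reads was excluded.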

| Substance | amyloid nucleation score |
| --- | --- |
| YMLLCPRPRGRSLRINNNDE | inactive |
| LVTFCYLDGSILNGEALRG | inactive |
| GRSSMFRINNQMLCWVSIPC | inactive |
| CFVAGYRSIGLLRFITIFCV | inactive |
| VSFEYTGEYLCSNVRATDLL | 0.366 ± 0.69 |
| LCDFSLGGYSGNCYIFKMSV | 0.739 ± 0.28 |
| GSWTVLQNRHQAERVVSVYR | inactive |
| LFDFADSMVRQVRTDAKRLN | inactive |
| LLDIC | inactive |
| VEDLMF | inactive |
| YSNLLAYWIQISKWIATGRC | inactive |
| VGFLWMQRVNEVDK | inactive |
| GLVYNNIWISLYFNGATVES | 2.08 ± 0.06 |
| RPRWFGPRSVVGMRASCTCW | inactive |
| EKWQKDLSNKHVRNAVVAWS | inactive |
| EFAEMHTAVLVERISSKVII | inactive |
| LPAHTL | inactive |
| SRCNIFGRPSASIAR | inactive |
| LQSCKATPRLCFEATLGRGV | -0.992 ± 2.5 |
| SAWVVFVVFFVSFDPDILFY | inactive |
| VRNLVHHPYAFL | inactive |
| LQSEPVLSDTSMSGVVASYF | inactive |
| VFCLVYKKCLKSYCQYMVIG | inactive |

| Substance | amyloid nucleation score |
| --- | --- |
| RKFGWIRVAWCSKRIVYYSK | -0.324 ± 0.62 |
| TISPFLINMFWLSCTLMSQE | 0.558 ± 0.16 |
| YAHLAL | inactive |
| PTKRYVKSYLISCVFIISHP | inactive |
| GVLRLVISEHDLDETFVFMT | 0.189 ± 0.43 |
| LVFGLLLS | inactive |
| MSCSASSSGKAWFGGSPTWW | 0.674 ± 0.3 |
| GGARL | inactive |
| YIFFEWGINPHRGDYVFSFR | inactive |
| IYGGCIFYRMSQCARMDTGE | inactive |
| LNIIVDGLAMDVYDEALGSN | inactive |
| PCKDLQTYWFENWCQRFGR | inactive |
| AYFIPYNTWFYKKGMARQFF | inactive |
| CPKALRIIGRSYCRTSEVTS | inactive |
| MIQGSVYPFHLCHLYDISHE | inactive |
| YVSQQYCWPGFFHRVHTGKS | inactive |
| DSICDTCYAVGCLPRVCWVV | inactive |
| IRLKQQDFEGSGKLFNGGHL | inactive |
| IVTHSMSSAHINRMNSRQ | inactive |
| IGPIWVPYHMSIIRSLLFGI | inactive |
| NVLLYNRKGQFSKCLCKSVD | inactive |
| VTMVSYYTCGEHNKVNILMQ | 1.42 ± 0.097 |
| YLRVQDLWWNKFENARHSSI | inactive |

| Substance | amyloid nucleation score |
| --- | --- |
| VHYWCGTQVVA | inactive |
| LNFTCEVGGVYEVDVNSCLL | inactive |
| AWNLS | inactive |
| VVRVHIRCTAFYKAPSYWGS | 0.987 ± 0.11 |
| DHYAWIFTDRLWYCRCNTVT | inactive |
| SYWLQSPYDTESMSGFLLQI | inactive |
| RVLVHYEVGFSENSRWGSVD | 0.481 ± 0.32 |
| KRGMSHVSVCFIMRCFLYID | inactive |
| MPMCT | inactive |
| IYLYYGRTYSTFLWEV | 0.762 ± 0.12 |
| FIVVVTYARWHSRYVSGWVS | inactive |
| TTTCHLRIKSNMRLSQEWLG | 1.17 ± 0.12 |
| CSNLVLP | -0.765 ± 1.4 |
| FGRGCHRSMTIGDLVFLLIT | inactive |
| ESGNS | inactive |
| MKKWDNNSLVLPLKGSGKED | inactive |
| QSMWH | inactive |
| TWLMFIFNSRYL | 1.51 ± 0.074 |
| LCALTS | inactive |
| WSETNTFS | inactive |
| SFSSFVFTMEALASAVSTHH | inactive |
| YLNNWMSWRRSLRRHIEVVR | inactive |
| HSMALITSSRVLVRVLTIMR | inactive |

| Substance | amyloid nucleation score |
| --- | --- |
| LGSAGYSSQGLWCLVLRVPL | inactive |
| GNIEGVRNVVALTMHVVNWV | 2.2 ± 0.091 |
| CFYEGYWREITNMAFLILRP | inactive |
| GMAVVLSLAPAGRKRTTTNV | inactive |
| TGVSIKFTSSKYYSVTSATT | inactive |
| HRIVHDSVLKRVFDYFR | inactive |
| LCTCTLCSLYV | inactive |
| EGRDQDNIPLMNTTGMCFGA | inactive |
| HLVRIASIRLNCDPLYRSVV | inactive |
| VLFSFAMLFKACLACFISCV | inactive |
| THRVTTRCLLRLLRWIRM | inactive |
| YGMSTG | inactive |
| GKDKLEGKEGGVSCDGNLRP | inactive |
| VVQRMG | -0.048 ± 1.1 |
| FCEFDIDVVLCTHRLYCNRY | inactive |
| QVYGINLGSTGNEARYAVRD | inactive |
| VIMGDINQVAQPGDLRRFRC | -0.423 ± 1.4 |
| MLKPIMLILKSLEFVLEESS | 0.985 ± 0.11 |
| CVEVLWERPSGTRAGMVGLL | -0.792 ± 1.4 |
| RVWVMV | inactive |
| WVSRNTVRGKVMSRCWVVQY | inactive |
| ASMLALCVLMHRLEPIRSFN | 0.64 ± 0.2 |
| VTFIRQGLEIVSVVLSICKE | inactive |

| Substance | amyloid nucleation score |
| --- | --- |
| FSMWCVSCN | inactive |
| FVVYL | inactive |
| LMSVLRFQTP | inactive |
| NFSCCLSCRQHMLAIFM | 0.988 ± 0.13 |
| NRDVLQKPLIIAICQSFCSQ | 2.32 ± 0.083 |
| NRFMVPETVKENIACFQTIQ | inactive |
| VCTPNRCLSTLSR | inactive |
| YKYVFHPIFFDQGT | inactive |
| RRTMSSLFFKFDLH | inactive |
| HFITCELGFGDKGSIFFIAG | inactive |
| PTFCNQNFGNTFGCKRFYLS | inactive |
| ANLRSLTR | inactive |
| PLSLSGGDDDRLLSLEMLVL | inactive |
| VYGVTSHCTVRRELWAGSIM | inactive |
| FYNRPKWLFVLGPENILCDS | inactive |
| GCKLIEWDVLIVDPMPARGR | inactive |
| PIAFSIALPRVVCRQ | inactive |
| SYGVGWVYTEFGNLLRSFGL | inactive |
| VGYVFFGFPVLKYARQESLS | inactive |
| CCVCLCACRLFCSIVADYRR | inactive |
| FVLRTNWGGISVYIYDVCSC | -0.238 ± 1.1 |
| YFYGLQWPCD | inactive |
| SFLRTVNGGRFSSVCSL | inactive |

| Substance | amyloid nucleation score |
| --- | --- |
| SCVTHLPTVT | inactive |
| MFLRVSTTINAYFLRVRSLI | inactive |
| EKANLLIWDFKKDMLRTVGG | inactive |
| LRSVFSRYFGQVHEFSRQRY | inactive |
| YYLFWVAFDMMLRLRFFVMD | inactive |
| RQVTLARWTISIC | inactive |
| WIFMSYWCVDLMPQLLHECW | inactive |
| KWLMNSNFAWLI | inactive |
| DSGVSEQWGGGIELILSWCL | inactive |
| SLYHSLSGYHFCISMLL | inactive |
| MVNMTI | inactive |
| YYWRMYCS | inactive |
| YVSRDVGNRNATSY | inactive |
| RCYFKYP | 1.32 ± 0.13 |
| NDGFMDVVNTSGSNLCMARN | inactive |
| SFNNACVFYMNSWLRWRI | 1.96 ± 0.083 |
| VLLVLVI | inactive |
| TSYVLWLSRLYFVANPSDYS | inactive |
| LRLVGLLMGNIFFELYGDLC | inactive |
| RYFNGPYLGRTVFEFT | inactive |
| NSWDYYVAWPFVRFG | -0.947 ± 0.98 |
| FVSYRESKKDMQACCALCRS | 0.965 ± 0.11 |
| GNIAELVSGREVYNYVN | -0.075 ± 0.9 |

| Substance | amyloid nucleation score |
| --- | --- |
| ESVRRMLLTLGAHWGSPIHF | inactive |
| TNEIDLSEFMLQITLMLIRG | inactive |
| SHGHDSVTRNRQGPCGIRIY | inactive |
| FFSCGDKLSFF | inactive |
| IMIGKVLFFGVATRMSVLRL | inactive |
| PLYQSYYHLEPSCDWCYSSR | -0.144 ± 0.28 |
| GRRMWCCREAHRSNDQV | 1.28 ± 0.11 |
| IETPSGLRKIELFMTCYYTS | 0.431 ± 0.41 |
| FLGIDAPDWSMVSKAIGRMG | inactive |
| CIEWHAQGDFFLMICLYCPD | inactive |
| LIVAFSLASLGLKFSQCSWA | -0.363 ± 0.96 |
| LGYISFGFPVEDNWVHLACD | inactive |
| DEISSFER | inactive |
| RKSDFVIVSCYQRFGNRELN | inactive |
| DELTNLPCY | -0.405 ± 0.79 |
| CHLYLPSQTSQH | inactive |
| CMTTASVQDKMVLLVWLLDE | inactive |
| IPIVRTLNLLASTLTPLCR | inactive |
| ACIFNLGGVHRCICCVLFNI | inactive |
| MYYRTRQELTSCPRNQNIL | -0.069 ± 0.85 |
